Test results reported in US20240368249A1 (INTERVET, published 2024).

T1: canine IL-4 (canine, UniProt O77762 25-132, biotin-labeled in the OCTET assay)
T1 sequence (looked up): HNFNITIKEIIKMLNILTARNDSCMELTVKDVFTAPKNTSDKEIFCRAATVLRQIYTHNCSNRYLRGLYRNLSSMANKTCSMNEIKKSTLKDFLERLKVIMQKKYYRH

T2: canine IL-13 (canine, UniProt Q9N0W9 19-131, limits assumed, biotin-labeled in the OCTET assay)
T2 construct: also called cIL-13; canine Interleukin-13
T2 sequence (looked up): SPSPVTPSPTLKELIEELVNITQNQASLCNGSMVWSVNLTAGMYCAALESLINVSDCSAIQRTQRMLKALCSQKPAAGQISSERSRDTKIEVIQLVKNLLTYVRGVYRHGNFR

B1: cIL-4Rα-13Rα2_ZW1-cFc (Fc fusion)
chain 1: VKVLHEPSCFSDYISTSVCQWKMDHPTNCSAELRLSYQLDFMGSENHTCVPENREDSVCVCSMPIDDAVEADVYQLDLWAGQQLLWSGSFQPSKHVKPRTPGNLTVHPNISHTWLLMWTNPYPTENHLHSELTYMVNVSNDNDPEDFKVYNVTYMGPTLRLAASTLKSGASYSARVRAWAQTYNSTWSDWSPSTTWLNYYEPWEQHLPPKRENGRVPRPPDCPKCPAPEMLGGPSVFIFPPKPKDTLLIARTPEVTCVVVDLDPEDPEVQISWFVDGKQMQTAKTQPREEQFNGTYRVVSVLPIGHQDWLKGKQFTCKVNNKALPSPIERTISKARGQAHQPSVYVYPPSREELSKNTVSLTCLIKDFFPPDIDVEWQSNGQQEPESKYRTTPPQLDEDGSYALVSKLSVDKSRWQRGDTFICAVMHEALHNHYTQESLSHSPGK
chain 2: SMLSNAEIKVNPPQDFEIVDPGYLGYLSLQWQPPLFPDNFKECTIEYELKYRNIDSENWKTIITKNLHYKDGFDLNKGIEAKINTLLPAQCTNGSEVRSSWAETTYWTSPQGNRETKIQDMDCVYYNWQYLVCSWKPGMGVHFDTNYQLFYWYEGLDHSAECTDYIKVNGKNMGCRFPYLESSDYKDFYICVNGSSESQPIRPSYFIFQLQNIVKPMPPDYLSLTVKNSEEINLKWNMPKGPIPAKCFIYEIEFTEDGTTWVTTTVENEIQITRTSNESQKLCFLVRSKVNIYCSDDGIWSEWSDEQCWKGDIWKETPKRENGRVPRPPDCPKCPAPEMLGGPSVFIFPPKPKDTLLIARTPEVTCVVVDLDPEDPEVQISWFVDGKQMQTAKTQPREEQFNGTYRVVSVLPIGHQDWLKGKQFTCKVNNKALPSPIERTISKARGQAHQPSVYVLPPSREELSKNTVSLLCLIKDFFPPDIDVEWQSNGQQEPESKYLTWPPQLDEDGSYFLYSKLSVDKSRWQRGDTFICAVMHEALHNHYTQESLSHSPGK
B2: cIL-4Rα-13Rα1_ZW1-cFc (Fc fusion)
chain 1: B1 chain 1
chain 2: GGVAAPTETQPPVTNLSVSVENLCTVIWTWDPPEGASPNCTLRYFSHFDNKQDKKIAPETHRSKEVPLNERICLQVGSQCSTNESDNPSILVEKCTPPPEGDPESAVTELQCVWHNLSYMKCTWLPGRNTSPDTNYTLYYWHSSLGKILQCEDIYREGQHIGCSFALTNLKDSSFEQHSVQIVVKDNAGKIRPSFNIVPLTSHVKPDPPHIKRLFFQNGNLYVQWKNPQNFYSRCLSYQVEVNNSQTETNDIFYVEEAKCQNSEFEGNLEGTICFMVPGVLPDTLNTVRIRVRTNKLCYEDDKLWSNWSQAMSIGENTDPTPKRENGRVPRPPDCPKCPAPEMLGGPSVFIFPPKPKDTLLIARTPEVTCVVVDLDPEDPEVQISWFVDGKQMQTAKTQPREEQFNGTYRVVSVLPIGHQDWLKGKQFTCKVNNKALPSPIERTISKARGQAHQPSVYVLPPSREELSKNTVSLLCLIKDFFPPDIDVEWQSNGQQEPESKYLTWPPQLDEDGSYFLYSKLSVDKSRWQRGDTFICAVMHEALHNHYTQESLSHSPGK
notes: Bispecific heterodimer; also called cIL4Rα-IL13Rα1_ZW1-cFc; cIL-4Rα-IL-13Rα1_ZW1-cFc

How the values were obtained:
[1] = biological target: T1, canine IL-4; experiment: cell-based or functional assay
[2] = biological target: T1, canine IL-4; experiment: BLI (OCTET HTX), biotin-cIL-4 on SA biosensors
Procedure: (§1) The binding constants for the cFc fusion proteins provided in Tables 3 and 4 below, were determined using OCTET® HTX. All kinetics measurements were performed by OCTET® HTX using SA® biosensors and DATA ACQUISITION® 12.0 software. 10 μg/mL of biotin-labeled antigen, either canine IL-4 (cIL-4) or canine IL-13 (cIL-13) were loaded onto the SA® biosensors for 120 seconds. Next, the biosensors were placed into 1×pH 7.0 TBS/Casein buffer for 60 seconds for the blocking phase. For the association phase, antigen loaded biosensors were placed into 2-fold serial dilutions from 1 μM down to 15.6 nM of the wild-type, the bispecific, or the FcRn-mutant receptor Fc-fusions that recognized the cIL-4 or cIL-13 antigen in 1×pH 7.0 TBS/Casein buffer for 30 seconds. The last well was buffer alone and that sensor was used for reference sensor subtraction. Finally, the biosensors were placed into 1×pH 7.0 TBS/Casein buffer for 120 seconds for the dissociation phase. The results were then analyzed using Data Analysis 12.0 software and the curves were fitted using a 1:1 binding model.

[3] = biological target: T2, canine IL-13; experiment: BLI (OCTET HTX), biotin-cIL-13 on SA biosensors
Procedure: as §1

Binder | IC50 for inhibition of cIL-4 mediated STAT6 phosphorylation in DH82 cells, against that of cIL4Rα-cFc or cIL4Rα-IL13Rα1_ZW1-cFc [1] | fold change of KD against the unmodified cIL-4Rα-cFc homodimer [2] | fold tighter binding against the unmodified IL-13Rα1-cFc [3]
B1 | > 3 orders of magnitude higher | – | –
B2 | – | ~10000 fold higher | 8 fold tighter
